Results from doi:10.1101/2025.08.05.667158, “Antagonistic insulin mimetics lock the insulin receptor in an alternative apo-state” (bioRxiv, 2025).
Positions of bridges follow the written chain, without caps; N, C: chain ends. Chains are numbered I, II in the order given. No end group written: not given here. adamantane scaffold = adamantane core scaffold to which the peptide C-termini are attached

B1: Ada insulin mimetic (designed binder)
peptide 1: Ac-FYDWFERQ
peptide 2: SLEEEWAQ
modifications: linker I:C-II:C via adamantane scaffold; not fully specified (C-terminus); also: mixture of two diastereoisomers
notes: minimal Site-1 peptide, derived from the phage display peptides S597 and S661; minimal Site-2 peptide, derived from the phage display peptides S597 and S661; Two peptides joined through their C-termini by an adamantane scaffold; Ada is an inseparable mixture of two diastereoisomers; only one fits the cryo-EM density; also called antagonist; source: synthetic (solid-phase peptide synthesis)
B2: Trim insulin mimetic (designed binder)
peptide 1: Ac-FYDWFERQ
peptide 2: SLEEEWAQ
modifications: linker I:C-II:C via trimesic acid scaffold; not fully specified (C-terminus); also: linker at chain A 8 at chain B 8 to a chain's C-terminus via trimesic acid scaffold
notes: minimal Site-1 peptide, derived from the phage display peptides S597 and S661; minimal Site-2 peptide, derived from the phage display peptides S597 and S661; Two peptides joined through their C-termini by a trimesic acid scaffold; also called antagonist; source: synthetic (solid-phase peptide synthesis)

Molecular target: T1, IR-A in cell membranes of human IM-9 lymphocytes (human (endogenous in IM-9), UniProt P06213-2 28-1370)
T1 construct: human insulin receptor, isoform A (IR-A); Heterotetramer (alpha alpha' beta beta') of two protomers, each cut into an alpha and a beta subunit; written as one chain for the protomer; In the functional rows this molecule stands for human IR-A stably transfected in mouse embryonic fibroblasts; also called insulin receptor; source: endogenous, cell membranes of human IM-9 lymphocytes (ATCC)
T1 sequence (P06213 other isoform, or with tags, fused parts or gaps): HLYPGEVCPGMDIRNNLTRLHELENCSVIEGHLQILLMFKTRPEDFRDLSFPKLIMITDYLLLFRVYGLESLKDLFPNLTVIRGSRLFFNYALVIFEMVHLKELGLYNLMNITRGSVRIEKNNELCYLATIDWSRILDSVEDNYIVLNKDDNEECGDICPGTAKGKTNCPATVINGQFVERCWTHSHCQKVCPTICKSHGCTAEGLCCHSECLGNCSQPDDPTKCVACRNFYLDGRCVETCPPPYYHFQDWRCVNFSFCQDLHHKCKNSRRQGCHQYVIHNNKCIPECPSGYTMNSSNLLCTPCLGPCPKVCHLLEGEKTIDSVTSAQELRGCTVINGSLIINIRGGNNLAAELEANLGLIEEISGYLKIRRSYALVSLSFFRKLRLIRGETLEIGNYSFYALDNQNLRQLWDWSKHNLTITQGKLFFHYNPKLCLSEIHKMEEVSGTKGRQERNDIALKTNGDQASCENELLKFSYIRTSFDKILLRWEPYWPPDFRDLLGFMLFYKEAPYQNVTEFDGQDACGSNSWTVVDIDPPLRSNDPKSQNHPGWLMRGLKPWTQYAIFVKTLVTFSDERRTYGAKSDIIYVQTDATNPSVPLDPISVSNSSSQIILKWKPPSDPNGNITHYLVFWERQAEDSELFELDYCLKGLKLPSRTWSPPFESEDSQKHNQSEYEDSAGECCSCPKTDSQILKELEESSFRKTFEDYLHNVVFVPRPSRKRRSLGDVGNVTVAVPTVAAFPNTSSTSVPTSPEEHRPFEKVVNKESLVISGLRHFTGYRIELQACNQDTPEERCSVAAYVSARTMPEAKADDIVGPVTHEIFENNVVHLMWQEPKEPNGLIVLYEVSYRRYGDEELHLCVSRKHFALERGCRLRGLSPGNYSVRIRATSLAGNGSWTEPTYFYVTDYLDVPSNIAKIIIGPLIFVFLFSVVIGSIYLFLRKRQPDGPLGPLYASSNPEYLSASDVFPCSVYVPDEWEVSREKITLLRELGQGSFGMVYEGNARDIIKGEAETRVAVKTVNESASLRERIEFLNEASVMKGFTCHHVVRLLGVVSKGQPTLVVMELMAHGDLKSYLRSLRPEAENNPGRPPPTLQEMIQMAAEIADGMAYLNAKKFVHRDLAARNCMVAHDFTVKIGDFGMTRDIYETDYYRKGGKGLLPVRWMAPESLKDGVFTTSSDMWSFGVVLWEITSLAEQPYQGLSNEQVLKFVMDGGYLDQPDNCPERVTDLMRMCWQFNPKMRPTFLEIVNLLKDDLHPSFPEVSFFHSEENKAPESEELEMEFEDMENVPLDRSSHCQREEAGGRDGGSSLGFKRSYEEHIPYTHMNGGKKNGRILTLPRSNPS
Test: radioligand binding; competition with [125I]-monoiodotyrosyl-TyrA14-insulin for IR-A in cell membranes of human IM-9 lymphocytes; each curve in duplicate, Kd from at least three curves; non-linear regression for one site binding with ligand depletion
Settings: one partner purified

Row | Binder | Kd [nM]
1 | B1 | 395
2 | B2 | 1260
